Data published in patent EP4467153A1, “CONSTRAINED PEPTIDE INHIBITORS OF LRRK2-FADD INTERACTIONS” (University of Georgia Research Foundation, Inc., priority 2023, dated 2024).
Entries after “also recorded” stand apart in the source; their conditions may differ. Positions of bridges follow the written chain, without caps; N, C: chain ends. Non-standard residues stand in square brackets, D forms with d. Primed or numbered codes have the meaning given here. FAM = 5(6)-carboxyfluorescein label; S5 = C=CCCC[C@](C)(N)C(=O)O; PEG3′ = PEG3 spacer

Key:
[1] = molecular target: T1, G2019S-LRRK2 (Homo sapiens, UniProt Q5S007, G2019S); assay: LRRK2 kinase function in HEK293T cells co-transfected with G2019S-LRRK2 and Flag-Rab10 (western blot); type: cell-based; details: G2019S-LRRK2 + Rab10, peptide at indicated concentrations, 24hr
T1 construct: expressed in transfected cells; host or cells: HEK293T
T1 sequence (Q5S007 whole entry G2019S): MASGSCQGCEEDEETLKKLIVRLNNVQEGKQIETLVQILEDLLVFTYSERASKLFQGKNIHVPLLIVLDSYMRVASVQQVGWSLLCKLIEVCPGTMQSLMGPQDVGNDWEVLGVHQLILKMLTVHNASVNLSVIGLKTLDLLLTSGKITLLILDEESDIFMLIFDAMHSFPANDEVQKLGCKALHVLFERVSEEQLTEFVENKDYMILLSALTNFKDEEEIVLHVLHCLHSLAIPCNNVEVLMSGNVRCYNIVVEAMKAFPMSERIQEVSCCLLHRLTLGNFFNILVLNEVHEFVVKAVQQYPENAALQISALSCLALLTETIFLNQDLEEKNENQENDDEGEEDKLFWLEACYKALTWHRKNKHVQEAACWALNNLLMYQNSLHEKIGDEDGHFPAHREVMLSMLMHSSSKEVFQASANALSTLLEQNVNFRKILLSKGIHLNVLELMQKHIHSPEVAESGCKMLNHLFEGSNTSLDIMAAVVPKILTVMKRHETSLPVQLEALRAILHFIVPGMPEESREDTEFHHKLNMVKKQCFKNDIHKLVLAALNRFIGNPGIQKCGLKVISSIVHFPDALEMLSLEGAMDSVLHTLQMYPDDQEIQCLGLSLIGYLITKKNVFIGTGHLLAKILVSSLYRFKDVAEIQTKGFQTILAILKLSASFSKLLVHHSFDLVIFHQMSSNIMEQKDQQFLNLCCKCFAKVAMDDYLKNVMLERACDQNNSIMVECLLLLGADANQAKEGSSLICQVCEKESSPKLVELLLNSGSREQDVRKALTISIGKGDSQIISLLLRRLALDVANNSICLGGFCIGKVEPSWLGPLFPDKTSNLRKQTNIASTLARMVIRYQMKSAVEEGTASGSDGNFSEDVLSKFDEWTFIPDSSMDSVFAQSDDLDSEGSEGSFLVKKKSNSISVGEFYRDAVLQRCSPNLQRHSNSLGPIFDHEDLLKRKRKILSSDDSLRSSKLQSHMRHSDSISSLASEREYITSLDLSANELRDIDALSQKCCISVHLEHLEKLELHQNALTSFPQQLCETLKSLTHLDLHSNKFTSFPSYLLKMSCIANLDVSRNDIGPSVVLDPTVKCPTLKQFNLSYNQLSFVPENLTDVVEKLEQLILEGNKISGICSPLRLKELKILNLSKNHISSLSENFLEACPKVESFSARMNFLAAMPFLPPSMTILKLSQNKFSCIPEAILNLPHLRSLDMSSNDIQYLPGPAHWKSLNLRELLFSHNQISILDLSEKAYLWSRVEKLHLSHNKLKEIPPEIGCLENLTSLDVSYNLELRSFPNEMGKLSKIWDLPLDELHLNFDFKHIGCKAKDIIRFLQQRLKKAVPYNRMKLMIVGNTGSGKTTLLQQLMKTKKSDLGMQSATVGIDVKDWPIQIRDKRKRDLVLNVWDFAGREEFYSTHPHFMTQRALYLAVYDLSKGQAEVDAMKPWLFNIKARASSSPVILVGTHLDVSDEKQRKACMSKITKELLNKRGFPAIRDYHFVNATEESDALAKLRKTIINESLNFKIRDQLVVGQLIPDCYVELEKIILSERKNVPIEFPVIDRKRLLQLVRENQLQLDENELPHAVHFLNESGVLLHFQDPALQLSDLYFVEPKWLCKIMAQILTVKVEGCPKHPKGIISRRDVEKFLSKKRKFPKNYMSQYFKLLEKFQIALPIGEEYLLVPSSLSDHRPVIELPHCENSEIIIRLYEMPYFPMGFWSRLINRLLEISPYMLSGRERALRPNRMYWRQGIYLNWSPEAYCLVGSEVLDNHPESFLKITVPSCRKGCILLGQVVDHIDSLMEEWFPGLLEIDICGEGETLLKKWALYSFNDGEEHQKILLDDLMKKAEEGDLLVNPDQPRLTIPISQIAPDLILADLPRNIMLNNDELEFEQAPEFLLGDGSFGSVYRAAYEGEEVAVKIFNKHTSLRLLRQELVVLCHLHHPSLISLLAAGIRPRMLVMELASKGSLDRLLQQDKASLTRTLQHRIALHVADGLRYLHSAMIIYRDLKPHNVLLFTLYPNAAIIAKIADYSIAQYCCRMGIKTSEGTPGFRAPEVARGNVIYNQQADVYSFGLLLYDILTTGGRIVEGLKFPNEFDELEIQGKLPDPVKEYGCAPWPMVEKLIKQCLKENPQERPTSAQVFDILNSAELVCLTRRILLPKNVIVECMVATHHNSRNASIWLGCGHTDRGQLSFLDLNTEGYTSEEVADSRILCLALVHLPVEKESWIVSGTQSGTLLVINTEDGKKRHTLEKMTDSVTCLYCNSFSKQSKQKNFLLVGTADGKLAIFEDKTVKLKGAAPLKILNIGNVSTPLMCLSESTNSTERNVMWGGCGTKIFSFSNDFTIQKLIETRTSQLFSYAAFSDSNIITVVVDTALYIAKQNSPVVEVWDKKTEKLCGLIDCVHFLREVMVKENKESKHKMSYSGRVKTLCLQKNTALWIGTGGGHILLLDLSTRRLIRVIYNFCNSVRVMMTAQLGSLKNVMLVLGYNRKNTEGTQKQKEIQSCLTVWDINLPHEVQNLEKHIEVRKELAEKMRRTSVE
Experimental: Since the peptides were designed to block LRRK2 from interacting with FADD, they should not have any effect on the catalytic kinase activity of LRRK2. To determine whether the PPI-disrupting FARMS peptide alters LRRK2 kinase activity in cells, HEK293T cells were co-transfected with WT or G019S-LRRK2 together with Rab10. Cells over-expressing mutant LRRK2 and human WT RablO were treated with FARMS and the cell extracts were probed for multiple indices of LRRK2 kinase activity including phosphorylated Rab10 and pS1292-LRRK2.
Assessment of LRRK2 kinase function. To determine whether peptides targeting the LRRK2-FADD PPI could also alter kinase function, LRRK2 activity was assessed in a cellular setting, through the phosphorylation of an endogenous substrate (pT73-Rab10), as well as auto-phosphorylation (pS1292-LRRK2). […] Parallel cultures were transfected with only WT or R1441C-LRRK2; and endogenous levels of phosphorylated RablO were assessed. Following 72hr of total expression, the cells were washed in cold PBS and collected. Cell lysis was performed using the following buffer: 50mM Tris HCl, pH 7.5; 1mM EGTA; 0.27 M sucrose; 1% Triton X-100; supplemented with protease and phosphatase inhibitor cocktails, and cell extracts stored at -80°C until use. […] For quantification, the band intensities for phosphorylated Rab 10 or LRRK2 were normalized to total expression of the respective protein.

[2] = tested on: primary cortical neurons; assay: Uptake of FAM-labeled peptide in primary cortical neurons (confocal imaging); type: cell-based, mouse; details: neurons expressing G2019S-LRRK2, 1 µM
[3] = tested on: HEK293T cells; assay: Cellular uptake of FAM-labeled peptides in HEK293T cells (fluorescence imaging); type: cell-based
Description: • FIGs. 1A-1D depict the design and structure of constrained peptides targeting the LRRK2-FADD PPI. (FIG. 1A) Structural representation of the region of the LRRK2 ARM domain in which the FADD-binding motif is located, shown with the fragment of the FADD death domain that binds LRRK2. (FIG. 1B) Highlight schematic of the relevant binding domains within LRRK2 and FADD, and the corresponding amino acid sequence that mediates this PPI is highlighted. (FIG. 1C) Schematic representation of the solid phase peptide synthesis, highlighting the placement of the synthetic amino acids for the placement of the peptide staple. (FIG. 1D) Sequences of the five stapled peptides synthesized, with the position of the synthetic residues in each peptide indicated by an asterisk. • FIGs. 2A-2B depict the cellular uptake of stapled vs. native peptides. (FIG. 2A) HEK293T cells were incubated with 5 µM of non-stapled control or constrained FARMS for a period of 24 hr. […] In the eluate, a dose-dependent reduction of FADD was detected with increasing concentrations of FARMS. […] (FIG. 4B) The percentage of transfected neurons with apoptotic nuclear features was determined in a blinded fashion. […] (FIG. 5B) The band intensities in FIG. 5A were quantified using Image J (n=2). […] (FIG. 5C) Phosphorylation of endogenous RablO in HEK293T cells by over-expressed WT or R1441C-LRRK2 was determined by Western blot, as in FIG. 5A. […]

**Q.** Which “phosphorylation of over-expressed Rab10 (pT73)” value [1] does the source give for “FARM5: FAM-labeled hydrocarbon-stapled FADD Armadillo domain peptide; mass fits SEQ ID NO. 6 KVADLVQEVQQAXDLQXRSK ({FAM-PEG3′}-KVADLVQEVQQA[S5]DLQ[S5]RSK-NH2; staple 13-17; also: FAM label, optionally 5(6)FAM-PEG3 on N-terminal lysine) [FAM-labeled hydrocarbon-stapled FADD Armadillo domain peptide; 6 …XDLQXRSK]” here?
**A.** The value was “unexpected increase”.

**Q.** And the “auto-phosphorylation of LRRK2 at Ser1292 (pS1292-LRRK2)” value ([1]; listed as FARMS)?
**A.** The value was “any loss in phosphorylation of pS1292-LRRK2 or RablO could be detected; also recorded: un-affected”.

**Q.** What about the “fluorescent signal from the FAM peptide tag in neurons” value [2] of the same substance?
**A.** The value was “diffusely distributed throughout most neurons”.

**Q.** What about the “cellular uptake (permeation of cells)” value ([3]; 5 µM FAM-labeled peptide, 24 hr) of the same substance?
**A.** Its value is “clear diffuse fluorescent signal along with a few visible puncta was observed throughout cells”.

**Q.** And the “dose-dependency of uptake of FAM-labeled peptide” value ([3]; 0.1 or 10 µM, 24hr)?
**A.** Its value is “dose-dependent”.
